Results published in patent publication US20030119169.

T1: in vitro translated GST-Mch3α2 precursor
T1 sequence (P55210 whole entry, looked up): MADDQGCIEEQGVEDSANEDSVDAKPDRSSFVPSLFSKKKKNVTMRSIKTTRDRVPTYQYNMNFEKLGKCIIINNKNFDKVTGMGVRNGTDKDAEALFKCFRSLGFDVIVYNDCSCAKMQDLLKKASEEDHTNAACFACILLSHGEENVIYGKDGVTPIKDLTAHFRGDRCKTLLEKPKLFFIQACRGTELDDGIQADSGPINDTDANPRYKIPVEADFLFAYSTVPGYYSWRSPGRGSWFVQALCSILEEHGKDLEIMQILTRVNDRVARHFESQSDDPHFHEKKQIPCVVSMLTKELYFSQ

T2: in vitro translated GST-CPP32 precursor, P42574
T2 chain: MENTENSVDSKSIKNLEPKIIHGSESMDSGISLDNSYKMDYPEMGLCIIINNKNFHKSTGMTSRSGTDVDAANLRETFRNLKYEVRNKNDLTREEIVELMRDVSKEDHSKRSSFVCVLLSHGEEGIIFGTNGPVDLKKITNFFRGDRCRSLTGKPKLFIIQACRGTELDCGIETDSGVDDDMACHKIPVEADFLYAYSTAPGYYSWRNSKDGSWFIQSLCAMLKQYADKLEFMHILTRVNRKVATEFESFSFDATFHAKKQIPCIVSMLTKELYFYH

T3: tetrapeptide substrate DEVD-AMC
T3 chain: DEVD

T4: YVADamc
T4 chain: YVAD


What was measured:
[1] = biological target: T1, in vitro translated GST-Mch3α2 precursor
[2] = biological target: T2, in vitro translated GST-CPP32 …
[3] = biological target: T3, tetrapeptide substrate DEVD-AMC
[4] = biological target: in vitro translated GST control [GST: P08515]
YVADamc = biological target: T4, YVADamc

in vitro translated GST control [GST: P08515], sequence (P08515 whole entry): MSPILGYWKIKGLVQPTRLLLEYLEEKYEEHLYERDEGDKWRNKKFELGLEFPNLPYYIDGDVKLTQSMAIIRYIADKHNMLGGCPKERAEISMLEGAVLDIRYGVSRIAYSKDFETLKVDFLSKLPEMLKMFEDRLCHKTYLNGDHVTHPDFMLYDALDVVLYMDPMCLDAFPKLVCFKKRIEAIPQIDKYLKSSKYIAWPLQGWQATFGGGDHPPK

Protein	cleavage of 35S-labelled in vitro translated precursor, SDS-PAGE and autoradiography [1]	cleavage of 35S-labelled in vitro translated precursor, SDS-PAGE and autoradiography [2]	Km (DEVDamc, µM) [3]	kcat/Km (DEVDamc, mM^-1s^-1) [3]	cleavage of 35S-labelled in vitro translated protein, SDS-PAGE and autoradiography [4]	cleavage of resin-immobilized 35S-labelled precursor, soluble products on gradient SDS gel [1]	Km (YVADamc, µM) (YVADamc)	kcat/Km (YVADamc, mM^-1 s^-1) (YVADamc)
Mch3α, bacterially expressed recombinant active enzyme (protein) AKPDRSSFVPSLFSKKKKNVTMRSIKTTRDRVPTYQYNMNFEKLGKCIIINNKNFDKVTGMGVRNGTDKDAEALFKCFRSLGFDVIVYNDCSCAKMQDLLKKASEEDHTNAACFACILLSHGEENVIYGKDGVTPIKDLTAHFRGDRCKTLLEKPKLFFIQACRGTELDDGIQADSGPINDTDANPRYKIPVEADFLFAYSTVPGYYSWRSPGRGSWFVQALCSILEEHGKDLEIMQILTRVNDRVARHFESQSDDPHFHEKKQIPCVVSMLTKELYFSQ	Mch3α exhibited significantly less activity than CPP32 towards the in vitro translated GST-Mch3α, a similar cleavage product was observed	No cleavage was observed in the buffer control or the Mch3α reaction	51 µM	11 mM⁻¹ s⁻¹				
CPP32, bacterially expressed recombinant active enzyme (protein) SGISLDNSYKMDYPEMGLCIIINNKNFHKSTGMTSRSGTDVDAANLRETFRNLKYEVRNKNDLTREEIVELMRDVSKEDHSKRSSFVCVLLSHGEEGIIFGTNGPVDLKKITNFFRGDRCRSLTGKPKLFIIQACRGTELDCGIETDSGVDDDMACHKIPVEADFLYAYSTAPGYYSWRNSKDGSWFIQSLCAMLKQYADKLEFMHILTRVNRKVATEFESFSFDATFHAKKQIPCIVSMLTKELYFYH	incubation of CPP32 with the in vitro translated GST-Mch3α generated a GST-prodomain cleavage product of molecular mass 32 kDa	CPP32 showed a very weak activity towards its precursor and generated a faint GST-prodomain band of 30 kDa size		1600 mM⁻¹ s⁻¹	No cleavage was observed when CPP32 was incubated with an in vitro translated GST control	CPP32 was observed to efficiently cleave the GST-Mch3α precursor	> 500 µM	67 M⁻¹ s⁻¹
